Test [1] has as its target T1, Mouse CB1 receptor, wild type (mouse, UniProt P47746 1-473).
T1 construct: also called mCB1; V5-mCB1
The experiment in a line: FACS on transfected cells.

The target of test [2] is T2, Human CB1 receptor (cannabinoid receptor-1), wild type (human, UniProt P21554 1-472).
T2 construct: as PerkinElmer hCB1 membranes in the GTP-Eu assay; also called hCB1; huCB1
In words: method not given.

The target of test [3] is T2, Human CB1 receptor (cannabinoid …). The experiment in a line: cell-based or functional assay.

The values that follow come from patent US20160145333A1 (Amgen, published 2016).

For orientation: Kd means a measure of binding affinity in units of concentration. A higher Kd goes with a looser complex.

T2 sequence (P21554 whole entry): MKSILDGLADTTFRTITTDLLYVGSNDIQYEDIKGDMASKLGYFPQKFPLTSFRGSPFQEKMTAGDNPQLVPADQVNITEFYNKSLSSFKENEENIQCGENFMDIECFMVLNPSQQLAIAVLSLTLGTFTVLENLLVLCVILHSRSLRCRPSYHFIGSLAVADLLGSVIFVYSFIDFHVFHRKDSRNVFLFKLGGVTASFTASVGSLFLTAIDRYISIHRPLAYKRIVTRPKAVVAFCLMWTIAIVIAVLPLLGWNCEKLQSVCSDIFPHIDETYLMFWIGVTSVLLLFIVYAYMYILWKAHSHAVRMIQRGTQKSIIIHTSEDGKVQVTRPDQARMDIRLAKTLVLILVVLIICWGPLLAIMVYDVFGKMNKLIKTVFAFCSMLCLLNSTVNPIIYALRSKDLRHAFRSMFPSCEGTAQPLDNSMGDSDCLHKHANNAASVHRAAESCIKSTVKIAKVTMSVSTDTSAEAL
T1 sequence (P47746 whole entry): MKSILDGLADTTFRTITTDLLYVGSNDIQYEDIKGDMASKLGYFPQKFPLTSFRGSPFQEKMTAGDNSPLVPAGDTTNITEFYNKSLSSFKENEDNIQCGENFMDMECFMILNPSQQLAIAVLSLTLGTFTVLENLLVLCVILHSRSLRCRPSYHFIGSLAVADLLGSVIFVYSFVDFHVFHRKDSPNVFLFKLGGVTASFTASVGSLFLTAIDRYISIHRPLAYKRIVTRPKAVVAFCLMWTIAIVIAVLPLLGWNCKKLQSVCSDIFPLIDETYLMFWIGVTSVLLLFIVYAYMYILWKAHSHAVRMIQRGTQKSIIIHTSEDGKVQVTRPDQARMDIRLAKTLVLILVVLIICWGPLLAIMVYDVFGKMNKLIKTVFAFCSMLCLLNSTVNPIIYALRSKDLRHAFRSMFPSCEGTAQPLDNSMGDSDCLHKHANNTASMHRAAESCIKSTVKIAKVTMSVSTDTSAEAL

B1: CB1 antibody 10D10 (antibody, human IgG2, kappa, V domains shown)
VH: QVQLQESGPGLVKPSQTLSLTCTVSGGSIRRGGDYWSWIRQHPGKGLEWIGYIYYSGSTNYNPSLKSRATISVDTSKNQFSLKLSSVTAADTAVYYCARDYDILTGYSYYYYGMDVWGQGTTVTVSS
VL: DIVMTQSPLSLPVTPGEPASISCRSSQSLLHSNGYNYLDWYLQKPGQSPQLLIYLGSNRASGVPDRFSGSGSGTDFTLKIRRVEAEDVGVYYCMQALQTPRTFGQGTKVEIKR
notes: Xenomouse (human) antibody; also called wild-type 10D10; WT HC / WT LC
Take B1: in test [1], the binding result is “no binding”. The molecule also yielded a Kd in test [2] below 0.2 µM. For the same molecule, the “IC50, GTP-Eu assay against anandamide” value in test [3] was determined as 0.0101 µM.
